# Molecular target: L-DOPA dioxygenase from Streptomyces sclerotialus (SsDDO) (Streptomyces sclerotialus)
# Experiment: crystal structure
substance,measurement,value
L-DOPA dioxygenase from Streptomyces sclerotialus (SsDDO) (enzyme),stoichiometry N,2

# Reference: paper PMC6930364
